{"source": "patent US20200377595A1", "about": "(Chugai, published 2020)", "binders": {"B1": {"name": "dBBDu197 (antibody, IgG1, V domains shown)", "VH": "QVQLVESGGGLVQPGRSLRLSCAASGFTFSNAWMHWVRQAPGKGLEWVAQIKDRSNAYAAYYAPSVKGRFTISRDDSKNSIYLQMNSLKTEDTAVYYCHYVHYASASTVLPAFGVDAWGQGTTVTVSS", "VL": "DIVMTQSPLSLPVTPGEPASISCRSSQSLVHSNRNTYLHWYQQKPGQAPRLLIYKVSNRFSGVPDRFSGSGSGTDFTLKISRVEAEDVGVYYCGQGTQVPYTFGQGTKLEIK", "notes": "IgG1"}, "B2": {"name": "dBBDu173 (antibody, IgG1, V domains shown)", "VH": "B1 VH with R54K, S55G, A57L, S107G, T108G, V109G, P111S, F113Y", "VL": "B1 VL", "notes": "IgG1"}, "B3": {"name": "dBBDu204 (antibody, IgG1, V domains shown)", "VH": "B1 VH with A57N, A60T, P64E", "VL": "B1 VL", "notes": "IgG1"}, "B4": {"name": "dBBDu189 (antibody, IgG1, V domains shown)", "VH": "B1 VH with V48I, A57Q, A60T, S105Q, T108S, V109L, A112S", "VL": "B1 VL", "notes": "IgG1"}, "B5": {"name": "dBBDu199 (antibody, IgG1, V domains shown)", "VH": "B1 VH with R54K, S55Q, N56S, A57G, A59N, A60T", "VL": "B1 VL", "notes": "IgG1"}, "B6": {"name": "dBBDu205 (antibody, IgG1, V domains shown)", "VH": "B1 VH with N56Q, A57L", "VL": "B1 VL", "notes": "IgG1"}, "B7": {"name": "dBBDu167 (antibody, IgG1, V domains shown)", "VH": "B1 VH with R54K, S55G, A57L, S107G, T108G, V109G, A112G", "VL": "B1 VL", "notes": "IgG1"}, "B8": {"name": "dBBDu193 (antibody, IgG1, V domains shown)", "VH": "B1 VH with A57Q, A60T, A104S, S105A, V109L, A112S", "VL": "B1 VL", "notes": "IgG1"}, "B9": {"name": "dBBDu202 (antibody, IgG1, V domains shown)", "VH": "B1 VH with R54K, S55G, A104S, S105A", "VL": "B1 VL", "notes": "IgG1"}, "B10": {"name": "dBBDu196 (antibody, IgG1, V domains shown)", "VH": "B1 VH with S55G, A59N, P64E", "VL": "B1 VL", "notes": "IgG1"}, "B11": {"name": "dBBDu186 (antibody, IgG1, V domains shown)", "VH": "B1 VH with A57Q, A60T, S105Q", "VL": "B1 VL", "notes": "IgG1"}, "B12": {"name": "CE115HA340 one-arm antibody (antibody, human IgG1, kappa, L234A L235A, N297A)", "VH": "QVQLVESGGGLVQPGRSLRLSCAASGFTFSNAWMHWVRQAPGKGLEWVAQIKDKSNNYATYYAESVKGRFTISRDDSKNSIYLQMNSLKTEDTAVYYCRYVHYAAYYGVDAWGQGTTVTVSSASTKGPSVFPLAPSSKSTSGGTAALGCLVKDYFPEPVTVSWNSGALTSGVHTFPAVLQSSGLYSLSSVVTVPSSSLGTQTYICNVNHKPSNTKVDKKVEPKSCDKTHTCPPCPAPEAAGGPSVFLFPPKPKDTLMISRTPEVTCVVVDVSHEDPEVKFNWYVDGVEVHNAKTKPREEQYASTYRVVSVLTVLHQDWLNGKEYKCKVSNKALPAPIEKTISKAKGQPREPQVYTLPPSRCELTKNQVSLSCAVKGFYPSDIAVEWESNGQPENNYKTTPPVLDSDGSFFLVSKLTVDKSRWQQGNVFSCSVMHEALHNHYTQKSLSLSPDYKDDDDK", "chain": "EPKSSDKTHTCPPCPAPELLGGPSVFLFPPKPKDTLMISRTPEVTCVVVDVSHEDPEVKFNWYVDGVEVHNAKTKPREEQYNSTYRVVSVLTVLHQDWLNGKEYKCKVSNKALPAPIEKTISKAKGQPREPQVCTLPPSRDELTKNQVSLWCLVKGFYPSDIAVEWESNGQPENNYKTTPPVLDSDGSFFLYSKLTVDKSRWQQGNVFSCSVMHEALHNRYTQKSLSLSP", "light": "DIVMTQSPLSLPVTPGEPASISCRSSQSLVHSNRNTYLHWYQQKPGQAPRLLIYKVSNRFSGVPDRFSGSGSGTDFTLKISRVEAEDVGVYYCGQGTQVPYTFGQGTKLEIKRTVAAPSVFIFPPSDEQLKSGTASVVCLLNNFYPREAKVQWKVDNALQSGNSQESVTEQDSKDSTYSLSSTLTLSKADYEKHKVYACEVTHQGLSSPVTKSFNRGEC", "notes": "one-arm antibody"}, "B13": {"name": "NHS6f50 (antibody)", "chain 1": "QVQLVESGGGLVQPGRSLRLSCAASGFTFSNAWMHWVRQAPGKGLEWVAQIKDKSNNYATYYAESVKGRFTISRDDSKNSIYLQMNSLKTEDTAVYYCRYVHYAALTGGLGYYGVDAWGQGTTVTVSSASTKGPSVFPLAPSSKSTSGGTAALGCLVKDYFPEPVTVSWNSGALTSGVHTFPAVLQSSGLYSLSSVVTVPSSSLGTQTYICNVNHKPSNTKVDKKVEPKSCDKTHTCPPCPAPEAAGGPSVFLFPPKPKDTLMISRTPEVTCVVVDVSHEDPEVKFNWYVDGVEVHNAKTKPREEQYASTYRVVSVLTVLHQDWLNGKEYKCKVSNKALPAPIEKTISKAKGQPREPQVYTLPPSRCELTKNQVSLSCAVKGFYPSDIAVEWESNGQPENNYKTTPPVLDSDGSFFLVSKLTVDKSRWQQGNVFSCSVMHEALHNHYTQKSLSLSPDYKDDDDK", "chain 2": "B12 chain", "chain 3": "B12 light"}, "B14": {"name": "NHS6f29 (antibody)", "chain 1": "B13 chain 1 with L106I, T107Y, G108Y, G109P, L110T, G111N", "chain 2": "B12 chain", "chain 3": "B12 light"}, "B15": {"name": "NNS6f47 (antibody)", "chain 1": "B13 chain 1 with L106H, T107F, G108M, G109W, L110W", "chain 2": "B12 chain", "chain 3": "B12 light"}, "B16": {"name": "NNS6f54 (antibody)", "chain 1": "B13 chain 1 with L106F, T107E, G108W, G109V, L110G, G111W", "chain 2": "B12 chain", "chain 3": "B12 light"}, "B17": {"name": "NNS6f63 (antibody)", "chain 1": "B13 chain 1 with L106G, T107G, L110W, G111V", "chain 2": "B12 chain", "chain 3": "B12 light"}, "B18": {"name": "NNS6f72 (antibody)", "chain 1": "B13 chain 1 with L106E, T107G, G108I, G109W, L110W", "chain 2": "B12 chain", "chain 3": "B12 light"}, "B19": {"name": "NNS6f68 (antibody)", "chain 1": "B13 chain 1 with L106V, T107E, G108W, L110R, G111W", "chain 2": "B12 chain", "chain 3": "B12 light"}, "B20": {"name": "NNS6f73 (antibody)", "chain 1": "B13 chain 1 with L106W, T107V, G108V, L110V, G111R", "chain 2": "B12 chain", "chain 3": "B12 light"}, "B21": {"name": "NNS6f62 (antibody)", "chain 1": "B13 chain 1 with L106N, T107G, G109T, L110R, G111H", "chain 2": "B12 chain", "chain 3": "B12 light"}, "B22": {"name": "NNS6f58 (antibody)", "chain 1": "B13 chain 1 with L106S, T107W, G108Q, G109V, L110S, G111R", "chain 2": "B12 chain", "chain 3": "B12 light"}, "B23": {"name": "NNS6f51 (antibody)", "chain 1": "B13 chain 1 with L106G, T107F, G108L, G109V, G111W", "chain 2": "B12 chain", "chain 3": "B12 light"}, "B24": {"name": "NNS6f67 (antibody)", "chain 1": "B13 chain 1 with L106G, T107L, G108L, G109R, L110A, G111A", "chain 2": "B12 chain", "chain 3": "B12 light"}, "B25": {"name": "NNS6f56 (antibody)", "chain 1": "B13 chain 1 with L106R, T107E, G108A, G109T, L110R, G111W", "chain 2": "B12 chain", "chain 3": "B12 light"}, "B26": {"name": "NNS6f55 (antibody)", "chain 1": "B13 chain 1 with L106A, T107G, G108R, G109W, G111A", "chain 2": "B12 chain", "chain 3": "B12 light"}, "B27": {"name": "NHS6f17 (antibody)", "chain 1": "B13 chain 1 with L106W, T107G, G108E, L110V, G111V", "chain 2": "B12 chain", "chain 3": "B12 light"}, "B28": {"name": "NNS6f27 (antibody)", "chain 1": "B13 chain 1 with L106V, T107W, G109S, L110V, G111W", "chain 2": "B12 chain", "chain 3": "B12 light"}, "B29": {"name": "NNS6f59 (antibody)", "chain 1": "B13 chain 1 with T107L, G108V, G109Q, L110E", "chain 2": "B12 chain", "chain 3": "B12 light"}, "B30": {"name": "NNS6f64 (antibody)", "chain 1": "B13 chain 1 with T107V, G108S, G109L, L110T, G111V", "chain 2": "B12 chain", "chain 3": "B12 light"}, "B31": {"name": "NNS6f71 (antibody)", "chain 1": "B13 chain 1 with L106G, T107W, G108V, G109L, L110G, G111S", "chain 2": "B12 chain", "chain 3": "B12 light"}, "B32": {"name": "NHS6f52 (antibody)", "chain 1": "B13 chain 1 with L106Y, T107M, G108L", "chain 2": "B12 chain", "chain 3": "B12 light"}}, "note": "Positions count from the first letter of the chain named. Values joined by “and” are separate entries in the source; they are usually repeats but may differ in a detail not shown here. Equal entries are not always repeated."}
{"target": "T1, biotin-labeled cynomolgus monkey CD137 fused to human IgG1 Fc fragment (cynomolgus monkey; human, UniProt Q07011 24-186, limits assumed, biotin-labeled)", "T1 construct": "also called cyno CD137-Fc; not shown: human IgG1 Fc fragment", "T1 chain": "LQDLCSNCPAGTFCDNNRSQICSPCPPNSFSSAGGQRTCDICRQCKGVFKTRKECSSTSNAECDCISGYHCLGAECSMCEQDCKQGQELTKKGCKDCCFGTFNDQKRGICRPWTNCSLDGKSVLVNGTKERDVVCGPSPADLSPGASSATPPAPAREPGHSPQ", "assay": "ELISA, IgG"}
{"binder": "B1", "binding result": "binds"}
{"binder": "B2", "binding result": "binds"}
{"binder": "B3", "binding result": "binds"}
{"binder": "B4", "binding result": "binds"}
{"binder": "B5", "binding result": "binds"}
{"binder": "B6", "binding result": "binds"}
{"binder": "B7", "binding result": "binds"}
{"binder": "B8", "binding result": "binds"}
{"binder": "B9", "binding result": "binds"}
{"binder": "B10", "binding result": "binds"}
{"binder": "B11", "binding result": "binds"}
{"target": "biotinylated CD3 epsilon epitope peptide", "assay": "SPR, one-arm Ab"}
{"binder": "B12", "Kd": "20 nM and 27 nM"}
{"binder": "B13", "Kd": "71 nM"}
{"binder": "B14", "Kd": "90 nM"}
{"binder": "B15", "Kd": "31 nM"}
{"binder": "B16", "Kd": "29 nM"}
{"binder": "B17", "Kd": "69 nM"}
{"binder": "B18", "Kd": "150 nM"}
{"binder": "B19", "Kd": "45 nM"}
{"binder": "B20", "Kd": "26 nM"}
{"binder": "B21", "Kd": "61 nM"}
{"binder": "B22", "Kd": "44 nM"}
{"binder": "B23", "Kd": "31 nM"}
{"binder": "B24", "Kd": "36 nM"}
{"binder": "B25", "Kd": "21 nM"}
{"binder": "B26", "Kd": "31 nM"}
{"binder": "B27", "Kd": "74 nM"}
{"binder": "B28", "Kd": "38 nM"}
{"binder": "B29", "Kd": "200 nM"}
{"binder": "B30", "Kd": "78 nM"}
{"binder": "B31", "Kd": "51 nM"}
{"binder": "B32", "Kd": "52 nM"}
